Tests used:
[1] = molecular target: RON (Macrophage stimulating protein receptor), full length, on cells (human, UniProt Q04912 25-1400); test: cell-based or functional assay
[2] = molecular target: T1, Mammalian expressed extracellular human RON protein (Gly25 to Thr957) with His-tag (human, UniProt Q04912 25-957); test: KinExA, RON-HIS
T1 construct: Expressed in ExpiCHO cells, purified on nickel; Position of the His-tag is told inconsistently; Written as one chain; also called RON ECD; RON ECD antigen; not shown: His-tag
T1 sequence: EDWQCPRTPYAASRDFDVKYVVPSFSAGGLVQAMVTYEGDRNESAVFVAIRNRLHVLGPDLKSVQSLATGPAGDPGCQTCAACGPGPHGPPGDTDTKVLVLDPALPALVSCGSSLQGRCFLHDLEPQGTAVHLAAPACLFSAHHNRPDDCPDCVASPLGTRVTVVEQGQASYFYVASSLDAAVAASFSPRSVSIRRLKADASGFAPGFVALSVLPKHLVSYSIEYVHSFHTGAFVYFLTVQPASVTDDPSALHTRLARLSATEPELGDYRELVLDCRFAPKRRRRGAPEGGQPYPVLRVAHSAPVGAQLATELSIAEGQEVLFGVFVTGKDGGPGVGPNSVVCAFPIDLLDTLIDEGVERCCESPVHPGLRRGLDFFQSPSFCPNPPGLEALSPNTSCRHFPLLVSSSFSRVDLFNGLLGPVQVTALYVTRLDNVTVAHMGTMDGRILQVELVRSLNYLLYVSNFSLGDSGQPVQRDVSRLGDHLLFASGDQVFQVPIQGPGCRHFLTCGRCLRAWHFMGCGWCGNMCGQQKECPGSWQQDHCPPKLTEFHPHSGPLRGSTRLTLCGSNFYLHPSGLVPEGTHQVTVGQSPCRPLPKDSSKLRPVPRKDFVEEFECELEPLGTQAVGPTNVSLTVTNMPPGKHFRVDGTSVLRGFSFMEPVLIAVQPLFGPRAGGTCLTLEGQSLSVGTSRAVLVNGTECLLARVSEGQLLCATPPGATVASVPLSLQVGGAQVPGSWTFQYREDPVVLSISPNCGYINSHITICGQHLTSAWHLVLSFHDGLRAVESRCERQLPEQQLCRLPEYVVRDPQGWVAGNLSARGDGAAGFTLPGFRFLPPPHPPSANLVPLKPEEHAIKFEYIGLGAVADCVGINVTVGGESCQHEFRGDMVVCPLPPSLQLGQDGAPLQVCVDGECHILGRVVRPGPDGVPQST

[3] = molecular target: T1, Mammalian expressed extracellular human …; test: KinExA, fixed antigen format, antibody titrated into fixed RON ECD-His
Source text: This limitation of the SPR method for highly avid antibodies has been described previously and the use of kinetic exclusion assay has been proposed as a way to overcome this limitation allowing measurements in the sub nanomolar range. We employed the Kinetic Exclusion assay (KinEXa) method to measure the Kd values of all of the new antibodies using a fixed concentration of the recombinant mammalian expressed protein as the target antigen and a twelve-point dilution curve of each antibody. We dropped antibody 9F6, in this assay as it seemed less avid than the other antibodies in preliminary SPR binding assays. The remaining seven antibodies gave exactly accurate results in duplicate analysis (FIG. 6).
(§1) Mammalian produced recombinant extracellular His-tag RON protein was used for affinity measurements. Affinity determinations were carried out in the fixed antigen format. Antibodies were titrated as two-fold dilutions into a fixed concentration of RON antigen. RON protein was detected using mouse monoclonal to 6×His-Tag (Dylight@650, Thermo Fisher). All affinity measurements were carried out using the KinExa 4000 (Sapidyne Instruments).

[4] = molecular target: T1, Mammalian expressed extracellular human …; test: KinExA, RON-HIS; 95% Confidence Level 14.92 pM to 49.11 pM
Experimental: as §1

[5] = molecular target: T1, Mammalian expressed extracellular human …; test: KinExA, RON-HIS; 95% Confidence Level 2.52 x 106 to 6.93 x 106

- IC50 of inhibition of MSP induced ERK phosphorylation (AlphaLISA SureFire p-ERK, T47D cells) [1]: 2800 pM
- koff [2]: 0.000121 s⁻¹
- Kd [3]: 29 pM
- Kd [4]: 29.4 pM
- kon [5]: 4.12e+06 M⁻¹ s⁻¹
B1: 10G1 (antibody, V domains shown)
VH: EVKLEQSGGGLVQPGGSRKLSCAASGFTFSSFGMHWVRQAPEKGLEWVAYISGGSGTFYYADTVKGRFTISRDNPKNTLFLQMTSLRSEDTAIYYCARSTTVLDYWGQGTTLTVSS
VL: DIVLTQTPSSMYAFLGERVTIICKASQDINNYLNWVQQKPGKAPKTLIYHADRLADGVPSRFSGSGSGQDYSLTISSLEYEDMGIYYCLQYDDFPPFTFGSGTKLEIK
notes: Mouse monoclonal antibody from a hybridoma; kappa light chain; also called Antibody 10G1; anti-RON antibody 10G1

— US20220372125A1 (ASLAN PHARMACEUTICALS PTE, published 2022)
